This is an account of results in patent US20240352105A1, “COMPOSITIONS AND METHODS FOR NEUTRALIZING ANTIGENS” (PACAGEN, INC, priority 2023, published 2024).

Values joined by “and” are separate entries in the source; they are usually repeats but may differ in a detail not shown here. Equal values may be shown once.

The target in test [1] is Can f2-sumo-His (dog (Canis familiaris)) (UniProt O18874). The test is described as follows: serum ELISA, 1:1K, Alpaca 2 block. (An ELISA detects its analyte on a solid surface through an enzyme-linked reagent.)
Can f2-sumo-His (dog (Canis familiaris)), sequence (O18874 19-180): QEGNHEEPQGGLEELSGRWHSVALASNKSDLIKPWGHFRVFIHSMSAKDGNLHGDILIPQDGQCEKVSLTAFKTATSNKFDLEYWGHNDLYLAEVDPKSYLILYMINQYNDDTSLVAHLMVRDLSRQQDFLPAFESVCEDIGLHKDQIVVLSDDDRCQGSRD
The target of test [2] is T1, recombinant His-tagged Der p2 (dust mite, UniProt P49278 18-146).
T1 construct: also called Der p2-His; Der p2-HIS; not shown: His tag
T1 sequence (looked up): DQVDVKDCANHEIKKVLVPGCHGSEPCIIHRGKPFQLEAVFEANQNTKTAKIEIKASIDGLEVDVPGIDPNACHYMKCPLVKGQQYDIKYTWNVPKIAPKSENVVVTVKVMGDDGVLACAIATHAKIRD
Kind of test: serum ELISA, 1:1K, Alpaca 2 block.

In test [3] the target is recombinant His-tagged Can f1 (dog (Canis familiaris)) (UniProt O18873). Kind of test: serum ELISA, 1:1K, Alpaca 2 block.
recombinant His-tagged Can f1 (dog (Canis familiaris)), sequence (O18873 19-174 limits assumed): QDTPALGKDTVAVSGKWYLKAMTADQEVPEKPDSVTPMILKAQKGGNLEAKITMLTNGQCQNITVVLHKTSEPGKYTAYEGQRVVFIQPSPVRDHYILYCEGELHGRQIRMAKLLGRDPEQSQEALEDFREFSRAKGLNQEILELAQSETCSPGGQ
Test [4] concerns the target recombinant His-tagged Can f2 (dog (Canis familiaris)) (UniProt O18874). The test is described as follows: serum ELISA, 1:1K, Alpaca 2 block.
In test [5] the target is Can f2-sumo-His (dog (Canis familiaris)) (UniProt O18874). Kind of test: serum ELISA, 1:2K, Alpaca 1 block.
In test [6] the target is T1, recombinant His-tagged Der p2. Kind of test: serum ELISA, 1:2K, Alpaca 1 block.
Test [7] deals with recombinant His-tagged Can f2 (dog (Canis familiaris)) (UniProt O18874). Kind of test: serum ELISA, 1:2K, Alpaca 1 block.
recombinant His-tagged Can f2 (dog (Canis familiaris)), sequence (O18874 19-180 limits assumed): as the sequence (O18874 19-180) above
Test [8] deals with Can f2-sumo-His (dog (Canis familiaris)) (UniProt O18874). Kind of test: serum ELISA, 1:2K, Alpaca 2 block.
Test [9] deals with T1, recombinant His-tagged Der p2. The test is described as follows: serum ELISA, 1:2K, Alpaca 2 block.
Test [10] concerns the target recombinant His-tagged Can f1 (dog (Canis familiaris)) (UniProt O18873). Kind of test: serum ELISA, 1:2K, Alpaca 2 block.
Test [11] concerns the target recombinant His-tagged Can f2 (dog (Canis familiaris)) (UniProt O18874). Kind of test: serum ELISA, 1:2K, Alpaca 2 block.
The target in test [12] is T1, recombinant His-tagged Der p2. Kind of test: serum ELISA, 1:8K, Alpaca 1 block.
For test [13], the target named is recombinant His-tagged Can f1 (dog (Canis familiaris)) (UniProt O18873). Kind of test: serum ELISA, 1:8K, Alpaca 1 block.
In test [14] the target is recombinant His-tagged Can f2 (dog (Canis familiaris)) (UniProt O18874). The test is described as follows: serum ELISA, 1:8K, Alpaca 1 block.
Test [15] addresses Can f2-sumo-His (dog (Canis familiaris)) (UniProt O18874). The test is described as follows: serum ELISA, 1:32k, Alpaca 1 block.
Test [16] deals with T1, recombinant His-tagged Der p2. The test is described as follows: serum ELISA, 1:32k, Alpaca 1 block.
The target of test [17] is recombinant His-tagged Can f1 (dog (Canis familiaris)) (UniProt O18873). Kind of test: serum ELISA, 1:32k, Alpaca 1 block.
Test [18] has as its target recombinant His-tagged Can f2 (dog (Canis familiaris)) (UniProt O18874). Kind of test: serum ELISA, 1:32k, Alpaca 1 block.

For the substance Negative serum taken from naïve alpacas, the OD at 450 nm was 0.186 OD and 0.181 OD in test [1]; 0.201 OD and 0.19 OD in test [2]; 0.228 OD and 0.218 OD in [3]; 0.227 OD and 0.241 OD in test [4]; 0.088 OD and 0.085 OD in [5]; 0.149 OD and 0.154 OD in test [6]. For the same substance, the OD at 450 nm is 0.093 OD and 0.099 OD in test [7]; 0.119 OD and 0.113 OD in test [8]; 0.152 OD and 0.15 OD in test [9]; 0.185 OD and 0.179 OD in [10]; 0.143 OD and 0.133 OD in test [11]; 0.104 OD and 0.099 OD in test [12]. For the same substance, the OD at 450 nm in test [13] is 0.116 OD and 0.117 OD; in test [14], 0.076 OD; in [15] it was 0.056 OD and 0.057 OD; in test [16], 0.099 OD and 0.081 OD; in test [17] it was 0.102 OD and 0.107 OD; in test [18], 0.069 OD and 0.062 OD.
